{
  "source": "the RNAGym collection of RNA variant scans (doi:10.1073/pnas.2313332121)",
  "parents": {"B1": {"name": "TPR t1 (parent)", "chain": "GACCAAUCUGCCCUCAGAGCUCGAGAACAUCUUCGGAUGCAGAGGAGGCAGGCUUCGGUGGCGCGAUAGCGCCAACGUCCUCAACCUCCAAUGCAUCCCACCACAUGAUGAUGCCUGAAGAGCCUUGGUUUUUUG"}},
  "data": [
    {"variants_of": "B1", "experiment": "polymerase ribozyme fitness, log enrichment relative to wild type (log ratio); higher = more active; in vitro selection for triplet polymerase activity", "in_short": "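Only genotypes with ≥10 input reads and ≥1 read per output were kept after Illumina sequencing of input and output libraries. These libraries were PCR-built, transcribed mutants of each subunit of a heterodimeric triplet polymerase ribozyme, each put through one triplicate in vitro selection round with frozen incubation at −7 °C, gel excision of extended constructs, streptavidin-bead capture and RT-PCR. Fitness is a logarithmic ratio of genotype enrichment to wild-type enrichment, from inverse-variance-weighted replicate averages, with the logarithm in base 2.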", "values": [
      {"variant": "GACCAAUCUGCCCUCAGAGCUCGAGAACAUCUUCGGAUGCAGAGGAGACAGGCUUCGGUGGCGCGAUAGCGCCAACGUCCUCAACCUCCAAUGCAUCCCUCCACAUGAUGAUGCCUGAAGAGCCUUGGUUUUUUG", "note": "[G48A A100U]", "polymerase ribozyme fitness (log ratio)": -1.19},
      {"variant": "GACCAAUCUGCCCUCAGGGCUCGAGAACAUCUUCGGAUGCAGAGGAGACAGGCUUCGGUGGCGCGAUAGCGCCAACGUCCUCAACCUCCAAUGCAUCCCACCACAUGAUGAUGCCGGAAGAGCCUUGGUUUUUUG", "note": "[A18G G48A U116G]", "polymerase ribozyme fitness (log ratio)": -3.25},
      {"variant": "GACCAAUCUGCCCUCAGAGCUCGAGAACAUCUUCGGAUGCAGAGAAGGCAGGGUUCGGUGGCGUGAUAGCGCCAACGUCCUCAACCUCCAAUGCAUCCCACCACAUGAUGAUGCCUGAAGAGCCUUGGUUUUUUG", "note": "[G45A C53G C64U]", "polymerase ribozyme fitness (log ratio)": -0.958},
      {"variant": "GACCAAUCUCCCCUCAGAGCUCGAGAACAUCUUCGGAUGCAGAGGAGGCAGGCUUCGGUGGCGCGAUAGCGUCAACGUCCUCAACCUCCAAUGCAUCCCACCACAUGAUGAUGCCUGAAGAGCCUUGGUUUUUUG", "note": "[G10C C72U]", "polymerase ribozyme fitness (log ratio)": -1.32},
      {"variant": "GACCAAUCUGCCUUCAGGGCUCGAGAACAUCUUCGAAUGCAGAGGAGUCAGGCUUCGGUGGCGCGAUAGCGUCAACGUCCUCAACCUCCAAUGCAUCCCACCACAUGAUGAUGCCUGUAGAGCCUUGGUUUUUUG", "note": "[C13U A18G G36A G48U C72U A118U]", "polymerase ribozyme fitness (log ratio)": -6.03},
      {"variant": "GACGAAUCUGCCCUCAGAGCUCGAGAACAUCUUCGGAUGCAGAGGAGGCAGGCUUCGGUGGCGCGAUAGCGCCAACGUCCUCAACCACCAAUGCAUCCCACCACAUGAUGAUGCCUGAAGAGCCUUGGUUUUUUG", "note": "[C4G U87A]", "polymerase ribozyme fitness (log ratio)": -2.92},
      {"variant": "GACCAAUCUGUCCUCAGAGCUCGAGAACAUCUUCGGAUGCAGAGGAGGCAGGCUUCGGUGGCGCGAUAGCGCCAACGUCCUCAACCUCCAAUGCAUCCCACCACAUGAUGAUGCCUGAAGGGCCUUGGUUUUUUG", "note": "[C11U A121G]", "polymerase ribozyme fitness (log ratio)": 1.13},
      {"variant": "GACCAAUCUGCCCUCAGAGCUCGAGAACAUCUUCGGAUGCAGAGGAGGCAGGCUUCGGUGGCGCGAUAGCGCCAACGUCCUCAAGCUCCAAUGCAUCCCACCACAUGAUGAUGCCUGAAGAGCCUUCGUUUUUUG", "note": "[C85G G127C]", "polymerase ribozyme fitness (log ratio)": -2.56},
      {"variant": "GACCAAUCUGCCCUCACAGCUCGAGAAUAUCUUCGGAUGCAGAGGAGGCAGGCUUCGGUGUCGCGAUAGCGCCAACGUCCUCAAACUCCAAUGCAUCCCACCACAUGAUAAUGCCUGAACAGCCUUGGUUUUUUG", "note": "[G17C C28U G61U C85A G110A G120C]", "polymerase ribozyme fitness (log ratio)": -1.25},
      {"variant": "GACCAAUCUGCCCUCAGAGCUCGAGAACAUCUUCGGAUGCAGAGGAGGCAGGCUUCGGUGGCGCGAUAGCGCCAACGUCCUCAACCUCCAAGGCAUCCCAUCUCAUGAAGAUGCCUGAAGAGCCUUGGUUUUUUG", "note": "[U92G C101U A103U U109A]", "polymerase ribozyme fitness (log ratio)": -6.74},
      {"variant": "GACCAAUCUGCCCUCAGAGCUCGAGAACAUCUUCGGAUGCAGAGGAGGCAGGUUGCGGUGGCGCGAUAGCGCCAACGUCCUCAACCUCCAAUGCAUCCCACCACAUGAUGAUGCCUGAAGAGCCUUGGUUUUUUG", "note": "[C53U U55G]", "polymerase ribozyme fitness (log ratio)": -0.16},
      {"variant": "GACCAAUCUGCCCUCAGAGCUCGAGAACAUCUUCGGAUGCAGAGGUGGCAGGCUUCGGUGGCGCGAUAGUGCCAACGUCCUCAACCUCCAAUGCAUCCCACCACAUGAUGAUGCCUGAAGAGCUUUGGUUUUUUG", "note": "[A46U C70U C124U]", "polymerase ribozyme fitness (log ratio)": -0.517},
      {"variant": "GACCAAUCUGCCCUCAGAGCUCGAGAACAUCUUCGGAUGCUGAGGAGGCAGGCUUCGGUGGCGCGAUAGCGCCAACGUCCUCAACCUCCAAUGCAUCCCACCACAUGAUCAUGCCUGAAGAGCCUUGGUUUUUUG", "note": "[A41U G110C]", "polymerase ribozyme fitness (log ratio)": -4.99},
      {"variant": "GACCAAUCUGCCCUCAGAGCUCGAGAACAUCUUCGGAUGCAGAGGAGGCAGGCUUCGGUGGCGCGAUAGCGGCAACGUCCUCAAUUUCCAAUGCAUCCCACCACAUGAUGAUGCCUGAAGAGCCUUGGUUUUUUG", "note": "[C72G C85U C86U]", "polymerase ribozyme fitness (log ratio)": -2.99},
      {"variant": "GACCAAUCUGCCCUGAGAGCUCGAGAACAUCUUCGGAUGCAGAGGAGGCAGGCUUCGGUGGCGCGAUAGGGCCAACGUCCUCAACCUCCAAUGCAUCCCACCACAUGAUGAUGCCUGAAGAGCCUUGGUUUUUUG", "note": "[C15G C70G]", "polymerase ribozyme fitness (log ratio)": -3.8},
      {"variant": "GACCAAUCUGCCCUCAGAGCUCGAGAAGAUCUUCGGAUGCAGAGGAGGCAGGCUUCGGUGGCGCGAUAGCGCCAACGUCCUCAACCUCCAAUGCAUCCCACCACAUGAUGAUGCCUGAAGAGUCUUGGUUUUUUG", "note": "[C28G C123U]", "polymerase ribozyme fitness (log ratio)": -0.975},
      {"variant": "GACCAAUCUGCCCUCAGAGCUCGAGAACAUCUUCGGAUGCAGAGGAGGCAGGCUUCGGUGGCGCGAUAGCGCCAACGUCCUCAACCUCCAAUUUAUCCCACCACAUGAUGAUGCCUGAAGAGCCUUGGUUUUUUG", "note": "[G93U C94U]", "polymerase ribozyme fitness (log ratio)": -1.22},
      {"variant": "GACCUAUCUGCCCUCAGAGCUCGAGAACUUCUUCGGAUGCAGAGGAGGCAGGCUUCGGUGGCGCGAUAGCGCCAACGUCCUCAACCUCCAAUGUAUCCCACCACAUGAUGAUGCCUGAAGAGCCUUGGUUUUUUG", "note": "[A5U A29U C94U]", "polymerase ribozyme fitness (log ratio)": -2.08},
      {"variant": "GACCAAUCUGCCCUAAGAGCUCGAGAACAUCUUCGGAUGCAGAGGAGGCAGGCUUCGGUGGCGCGAUAGCGCCAACGUCCUCAUCCUCCAAUGCAUCCCACCACAUGAUGAUGCCUGAAGAGCCUUGGUUUUUUG", "note": "[C15A A84U]", "polymerase ribozyme fitness (log ratio)": -1.41},
      {"variant": "GACCAUUCUGCCCUCAGAGCUCGAGAACACCUUCGGAUGCAGAGGAGGCAGGCUUCGGUGGCGCGAUAGCGCCAACGUCCUCAACCUCCAAUUCAUCCCACCACAUGAUGAUGCCUGAAUAGCCUUGGUUUUUUG", "note": "[A6U U30C G93U G120U]", "polymerase ribozyme fitness (log ratio)": -3.6},
      {"variant": "GACCAAUCUGCCCUCAGAGCUCGAGAACAUCUUCGGAUGCAGAGGAGGCAGGCUUCGGUGGCGCGAUAGCGCCAACGUCCUCAACCUCCAAUGCAUCCCACCACAUGAUAAUGCCUGAAGAUCCUUGGUUUUUUG", "note": "[G110A G122U]", "polymerase ribozyme fitness (log ratio)": -1.41}
    ]}
  ]
}
